The record followed here is patent US20130336885A1 (Genentech, published 2013).

Experiment [1] has as its target T1, gD epitope-tagged mouse LgR5 expressed on stably transfected 293 cells (mouse, UniProt Q9Z1P4 22-907).
T1 construct: also called gD-tagged mouse LgR5
T1 sequence: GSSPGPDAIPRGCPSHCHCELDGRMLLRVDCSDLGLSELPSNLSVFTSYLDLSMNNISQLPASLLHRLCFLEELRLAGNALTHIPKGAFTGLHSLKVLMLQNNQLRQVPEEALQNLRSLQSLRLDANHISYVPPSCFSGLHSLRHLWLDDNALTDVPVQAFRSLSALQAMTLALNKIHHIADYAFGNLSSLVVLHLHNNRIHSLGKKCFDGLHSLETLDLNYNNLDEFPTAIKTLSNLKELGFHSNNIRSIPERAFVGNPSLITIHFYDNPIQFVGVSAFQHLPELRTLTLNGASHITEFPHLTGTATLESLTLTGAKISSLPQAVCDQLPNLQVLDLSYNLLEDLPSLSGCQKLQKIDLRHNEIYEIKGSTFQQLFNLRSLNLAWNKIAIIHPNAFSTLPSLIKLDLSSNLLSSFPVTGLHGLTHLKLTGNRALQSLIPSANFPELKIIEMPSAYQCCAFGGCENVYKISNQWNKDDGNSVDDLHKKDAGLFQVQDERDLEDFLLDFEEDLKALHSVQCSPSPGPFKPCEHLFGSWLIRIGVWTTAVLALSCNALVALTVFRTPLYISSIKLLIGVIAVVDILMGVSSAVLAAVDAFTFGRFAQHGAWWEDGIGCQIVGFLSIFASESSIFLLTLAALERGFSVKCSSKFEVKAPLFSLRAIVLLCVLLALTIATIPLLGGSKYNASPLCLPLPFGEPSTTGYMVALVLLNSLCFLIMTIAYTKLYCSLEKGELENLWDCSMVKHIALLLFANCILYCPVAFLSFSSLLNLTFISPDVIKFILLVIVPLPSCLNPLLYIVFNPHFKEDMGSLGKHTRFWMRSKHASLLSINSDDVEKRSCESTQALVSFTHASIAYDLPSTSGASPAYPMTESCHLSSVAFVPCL
Put plainly: Scatchard analysis, competition of 125I-labeled with unlabeled antibody on 293 cells stably expressing mouse LgR5. Here is the method: Scatchard analysis was performed following standard procedures (Holmes et al., Science 256:1205-1210 (1992)) to determine the relative binding affinities of YW353, ch8E11 and hu8E11v2 antibodies.
Anti-LgrS antibodies were [I¹²⁵] labeled using the indirect Iodogen method. […] Competition assay mixtures of 50 μL volume containing a fixed concentration of [I¹²⁵] labeled antibody and decreasing concentrations of serially diluted, unlabeled antibody were placed into 96-well plates. 293 cells stably expression human, rat, or mouse LgrS were cultured in growth media at 37° C. in 5% CO₂. Cells were detached from the flask using Sigma Cell Dissociation Solution and were washed with binding buffer, which consisted of Dulbecco's Modified Eagle Medium (DMEM) with 2% fetal bovine serum (FBS), 50 mM HEPES (pH 7.2) and 0.1% sodium azide. The washed cells were added to the 96 well plates at a density of 250,000 cells in 0.2 mL of binding buffer. The final concentration of the labeled antibody in each well was 200 μM. […] The filters were counted on a Wallac Wizard 1470 gamma counter (PerkinElmer Life and Analytical Sciences Inc.; Wellesley, Mass.). The binding data was evaluated using NewLigand software (Genentech), which uses the fitting algorithm of Munson and Robard to determine the binding affinity of the antibody (Munson and Robard 1980)

Experiment [2] concerns the target T1, gD epitope-tagged mouse LgR5 expressed …. Put plainly: FACS on stably transfected 293 cells, detected with R-Phycoerythrin goat anti-human antibody. Here is the method:
Monoclonal antibodies were tested to determine if they cross-react with LgR5 from species other than human. […] Residues that are identical among all four species are indicated by asterisks (*). […] YW353 antibody binds human and cynomolgus monkey LgR5, but not rat or mouse LgR5. Ch8E11 and hu8E11.v2 antibodies bind all four species of LgR5, although binding to rat LgR5 is not as strong as binding to human, cynomolgus monkey, or mouse LgR5. 2H6 antibody binds to human and mouse LgR5, and was not tested for binding to cynomolgus monkey or rat LgR5.

B1: humanized monoclonal antibody 8E11.v2 (antibody, human IgG1, kappa, V domains shown)
VH: EVQLVQSGAEVKKPGASVKVSCKASGYTFSAYWIEWVRQAPGQGLEWIGEILPGSDSTDYNEKFKVRATFTSDTSTSTVYLELSSLRSEDTAVYYCARGGHYGSLDYWGQGTLVTVSS
VL: DIVMTQSPDSLAVSLGERATINCRASESVDNYGNSFMHWYQQKPGQPPKLLIYLASNLESGVPDRFSGSGSGTDFTLTISSLQAEDVAVYYCQQNYEDPFTFGQGTKVEIKR
notes: It was assessed as an IgG; also called hu8E11.v2; hu8E11v2
A word on the Kd: it is the constant that tells how readily two partners part at equilibrium. Take B1: the Kd in experiment [1] stood at 0.6 nM.

B2: human antibody YW353 (antibody, human IgG1, kappa, V domains shown)
VH: EVQLVESGGGLVQPGGSLRLSCAASGFTFTSYSISWVRQAPGKGLEWVAEIYPPGGYTDYADSVKGRFTISADTSKNTAYLQMNSLRAEDTAVYYCAKARLFFDYWGQGTLVTVSS
VL: DIQMTQSPSSLSASVGDRVTITCRASQDVSTAVAWYQQKPGKAPKLLIYSASFLYSGVPSRFSGSGSGTDFTLTISSLQPEDFATYYCQQSYTTPPTFGQGTKVEIKR
notes: also called huYW353
Regarding B2, the binding result in experiment [2] is listed as “no binding (tested: 10 µg/ml)”.
